These results are taken from patent US20130143802A1.

Experiment [1] addresses interleukin 1 receptor (on human peripheral blood leukocytes RPMI 1788) (human (cells are stated to be human)) (UniProt P14778). The experiment in a line: cell-based or functional assay.
The target of a further experiment is alpha-amylase. The experiment in a line: cell-based or functional assay.

Chain of UniProt P14778 (P14778 18-569): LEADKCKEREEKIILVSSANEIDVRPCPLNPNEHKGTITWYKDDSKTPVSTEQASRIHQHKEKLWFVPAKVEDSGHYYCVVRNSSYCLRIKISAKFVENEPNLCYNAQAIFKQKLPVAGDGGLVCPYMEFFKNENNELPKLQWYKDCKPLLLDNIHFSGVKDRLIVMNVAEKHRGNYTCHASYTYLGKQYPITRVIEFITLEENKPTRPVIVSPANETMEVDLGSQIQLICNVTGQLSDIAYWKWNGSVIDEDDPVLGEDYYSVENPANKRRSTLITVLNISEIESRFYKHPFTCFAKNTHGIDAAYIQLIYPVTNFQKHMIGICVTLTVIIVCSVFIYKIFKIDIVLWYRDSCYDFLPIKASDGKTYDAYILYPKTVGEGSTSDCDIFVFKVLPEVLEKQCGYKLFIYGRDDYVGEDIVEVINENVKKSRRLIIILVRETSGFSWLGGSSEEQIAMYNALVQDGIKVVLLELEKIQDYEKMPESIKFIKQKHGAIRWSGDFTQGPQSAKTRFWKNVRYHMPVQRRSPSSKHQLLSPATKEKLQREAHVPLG

As to “ELP/IL-1Ra fusion protein (ELP1 [V5A2G3-90] - … - interleukin 1 receptor antagonist) (from UniProt P18510 26-177)”, the specific activity: EC50 value in µg/mL, inhibition of proliferation of RPMI 1788 cells (CellTiter Glo assay) in experiment [1] was 0.5 µg/mL. Take “IL-1Ra/ELP fusion protein (interleukin 1 receptor antagonist - … - ELP1 [V5A2G3-90]) (from UniProt P18510 26-177)”: in experiment [1], the potency relative to ELP/IL-1Ra in the cell proliferation assay stood at 4 fold and the specific activity: EC50 value in µg/mL, inhibition of proliferation of RPMI 1788 cells (CellTiter Glo assay) came out at 2 µg/mL. In the case of “ternary thioredoxin-ELP-tendamistat fusion (thioredoxin/90-mer ELP/tendamistat) (from UniProt P01092 31-104)”, the α-amylase inhibition activity (colorimetric α-amylase inhibition assay) in the experiment with alpha-amylase is 2 fold.

In experiment [1], “un-fused, commercially available interleukin 1 receptor antagonist (from UniProt P18510 26-177) (ligand)” registered an EC50, inhibition of proliferation of RPMI 1788 cells (CellTiter Glo assay) of 0.0016 µg/mL and an activity relative to IL-1Ra/ELP in the cell proliferation assay of 300 fold.
